Data from patent publication EP3632934A1 (F. Hoffmann-La Roche AG, dated 2020).

Biological target: T1, human OX40 (Sino Biological Inc) (human, UniProt P43489 29-216)
T1 construct: Bought soluble protein used as SPR analyte; also called huOX40
T1 sequence: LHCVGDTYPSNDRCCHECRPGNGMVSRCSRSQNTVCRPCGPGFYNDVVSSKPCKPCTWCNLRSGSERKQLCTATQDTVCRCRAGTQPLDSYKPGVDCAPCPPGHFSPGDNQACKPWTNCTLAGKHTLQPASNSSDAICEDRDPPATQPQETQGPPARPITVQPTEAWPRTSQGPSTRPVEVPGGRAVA
Assay: SPR, Biacore; against parent 1A7.gr.1

B1: 1A7.gr.SGDS (antibody, V domains shown)
VH: EVQLVQSGAEVKKPGASVKVSCKASGYTFTDSYMSWVRQAPGQGLEWIGDMYPDSGDSSYNQKFRERVTITRDTSTSTAYLELSSLRSEDTAVYYCVLAPRWYFSVWGQGTLVTVSS
VL: DIQMTQSPSSLSASVGDRVTITCRASQDISNYLNWYQQKPGKAPKLLIYYTSRLRSGVPSRFSGSGSGTDFTLTISSLQPEDFATYYCQQGHTLPPTFGQGTKVEIK
In the case of B1, the “fold loss of binding affinity against 1A7.gr.1” value is reported as 2 fold.
